B1: full-length FIS1 polypeptide (other)
chain: MEKENHEDDGEGLPPELNQIKEQIEKERFLHIKRKFELRYIPSVATHASHHQSFDLNQPAAEDDNGGDNKSLLSRMQNPLRHFSASSDYNSYEDQGYVLDEDQDYALEEDVPLFLDEDVPLLPSVKLPIVEKLPRSITWVFTKSSQLMAESDSVIGKRQIYYLNGEALELSSEEDEEDEEEDEEEIKKEKCEFSEDVDRFIWTVGQDYGLDDLVVRRALAKYLEVDVSDILERYNELKLKNDGTAGEASDLTSKTITTAFQDFADRRHCRRCMIFDCHMHEKYEPESRSSEDKSSLFEDEDRQPCSEHCYLKVRSVTEADHVMDNDNSISNKIVVSDPNNTMWTPVEKDLYLKGIEIFGRNSCDVALNILRGLKTCLEIYNYMREQDQCTMSLDLNKTTQRHNQVTKKVSRKSSRSVRKKSRLRKYARYPPALKKTTSGEAKFYKHYTPCTCKSKCGQQCPCLTHENCCEKYCGCSKDCNNRFGGCNCAIGQCTNRQCPCFAANRECDPDLCRSCPLSCGDGTLGETPVQIQCKNMQFLLQTNKKILIGKSDVHGWGAFTWDSLKKNEYLGEYTGELITHDEANERGRIEDRIGSSYLFTLNDQLEIDARRKGNEFKFLNHSARPNCYAKLMIVRGDQRIGLFAERAIEEGEELFFDYCYGPEHADWSRGREPRKTGASKRSKEARPAR
notes: Expressed in yeast from the two-hybrid vectors pGBT9 and pGAD424, so it was a fusion with the vector-encoded domain; also called MEDEA/FIS1; MEA
B2: full-length FIS3 polypeptide (other)
chain: MSKITLGNESIVGSLTPSNKKSYKVTNRIQEGKKPLYAVVFNFLDARFFDVFVTAGGNRITLYNCLGDGAISALQSYADEDKEESFYTVSWACGVNGNPYVAAGGVKGIIRVIDVNSETIHKSLVGHGDSVNEIRTQPLKPQLVITASKDESVRLWNVETGICILIFAGAGGHRYEVLSVDFHPSDIYRFASCGMDTTIKIWSMKEFWTYVEKSFTWTDDPSKFPTKFVQFPVFTASIHTNYVDCNRWFGDFILSKSVDNEILLWEPQLKENSPGEGASDVLLRYPVPMCDIWFIKFSCDLHLSSVAIGNQEGKVYVWDLKSCPPVLITKLSHNQSKSVIRQTAMSVDGSTILACCEDGTIWRWDVITK
notes: The full-length FIS3 cDNA was cloned into pGBT9 and pGAD424; the vector-encoded fusion domain is not included; also called FIE
B3: FIS1 deletion mutant Bcl (320 amino acid polypeptide comprising the A and C5 regions only) (other)
chain: MEKENHEDDGEGLPPELNQIKEQIEKERFLHIKRKFELRYIPSVATHASHHQSFDLNQPAAEDDNGGDNKSLLSRMQNPLRHFSASSDYNSYEDQGYVLDEDQDYALEEDVPLFLDEDVPLLPSVKLPIVEKLPRSITWVFTKSSQLMAESDSVIGKRQIYYLNGEALELSSEEDEEDEEEDEEEIKKEKCEFSEDVDRFIWTVGQDYGLDDLVVRRALAKYLEVDVSDILERYNELKLKNDGTAGEASDLTSKTITTAFQDFADRRHCRRCMIFDCHMHEKYEPESRSSEDKSSLFEDEDRQPCSEHCYLKVRSVTEAD
notes: Expressed as a yeast two-hybrid vector fusion (pGBT9 / pGAD424); the fusion domain is not included; also called delta-Bcl; truncated FIS1 having the C-terminal 369 amino acids containing the N, CXC and SET domains deleted

The data set “yeast two-hybrid” deals with the molecule itself. As to the kind of experiment: yeast two-hybrid. An excerpt:
(§1) In particular, the full-length FIS1 cDNA sequence, encoding a 689 amino acid polypeptide comprising the A, C5, N, CXC and SET domains, and the deletion mutants designated: ΔBgl, encoding a 513 amino acid polypeptide and lacking the C-terminal SET domain-encoding region; ΔBcl, encoding a 320 amino acid polypeptide and lacking the C-terminal N, CXC and SET domain-encoding regions; ΔPst, encoding a 62 amino acid polypeptide and lacking the C-terminal portion of FIS1 comprising the five domain-encoding regions; and Δ160, lacking 160 bp at the 5′-end of the FIS1 cDNA, were constructed (FIG. 27). The full-length FIS2 and FIS3 cDNAs were also used. Control constructs, employing the empty vectors pGBT9 and pGAD424, or alternatively the EzA1 cDNA, were also used. Each cDNA was cloned into each vector and yeast were transformed with vectors expressing different FIS polypeptides, in the presence of adenine selection and β-Galactosidase activation, to select for cells expressing from both constructs.

In data set [1] the target is B1. As to the kind of experiment: yeast two-hybrid.
Description: as §1

The target in data set [2] is T1, full-length FIS2 polypeptide (Arabidopsis thaliana, UniProt P0DKJ7 1-813, limits assumed).
T1 construct: The full-length FIS2 cDNA was cloned into pGBT9 and pGAD424; the vector-encoded fusion domain is not included
T1 sequence: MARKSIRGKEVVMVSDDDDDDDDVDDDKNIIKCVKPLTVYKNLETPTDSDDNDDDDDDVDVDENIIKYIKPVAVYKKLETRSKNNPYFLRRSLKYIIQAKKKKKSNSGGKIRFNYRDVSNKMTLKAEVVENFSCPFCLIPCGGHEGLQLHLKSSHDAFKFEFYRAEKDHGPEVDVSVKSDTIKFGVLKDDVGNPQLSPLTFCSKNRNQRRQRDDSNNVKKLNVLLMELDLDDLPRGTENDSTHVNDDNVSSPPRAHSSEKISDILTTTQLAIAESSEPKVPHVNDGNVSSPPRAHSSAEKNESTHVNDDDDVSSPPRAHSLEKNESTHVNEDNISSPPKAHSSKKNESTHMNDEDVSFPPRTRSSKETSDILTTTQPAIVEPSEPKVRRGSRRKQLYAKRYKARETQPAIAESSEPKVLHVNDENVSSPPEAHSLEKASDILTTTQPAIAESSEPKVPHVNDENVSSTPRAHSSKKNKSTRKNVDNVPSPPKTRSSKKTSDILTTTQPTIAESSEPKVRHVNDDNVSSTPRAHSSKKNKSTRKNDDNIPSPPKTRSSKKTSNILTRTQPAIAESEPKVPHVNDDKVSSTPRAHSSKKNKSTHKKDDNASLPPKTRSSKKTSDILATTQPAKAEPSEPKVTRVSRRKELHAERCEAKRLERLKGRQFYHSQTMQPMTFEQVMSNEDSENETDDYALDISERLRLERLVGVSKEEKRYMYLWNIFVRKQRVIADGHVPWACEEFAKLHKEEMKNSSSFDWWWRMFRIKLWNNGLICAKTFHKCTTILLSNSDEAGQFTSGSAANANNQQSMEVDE
Put plainly: yeast two-hybrid (pGBT9 / pGAD424, adenine selection and beta-galactosidase).
Description: as §1

The target in data set [3] is B2. Put plainly: yeast two-hybrid.
Description: as §1

As for B1, in “yeast two-hybrid”, the binding result was “binds”. In the case of B2, the binding result in data set [1] is recorded as “binds”; in data set [2], “no binding”. Turning to B3, the binding result in data set [1] and in data set [3] was “binds” in each case.
